From PMC9170038

B1: Eterna 7752556 (Exclusion - Arginine B) (ssRNA)
RNA: UUAGUCUAGAGAAGGAGCGAGUGAUGUUCGCAUGCUAUGAUGAAUUCAUCAUAGUUUAAUCCUCAGGUAGGUCGCUCUAGACAUU
B2: Eterna 6121097 (Same State NG 1) (ssRNA)
RNA: CGCUGUCACGCAGGAUAUGCAUUGGAUUACAAUGCAGAAGGGCGAUUACAUGAGGAUCACCCAUGUGUCGACAGUGAAGAAGAG
B3: Eterna 6391704 (Inverted Exclusion NG 3) (ssRNA)
RNA: AGCUGGUGACAGCAUCCAUCUUAACAUGAGGAUCACCCAUGUAGAAGGCUGUACGGUUACCGUACAGAGGAUAUACAUAGAUGG
B4: Eterna 7726098 (Exclusion - FMN A) (ssRNA)
RNA: AAGUGAUGUUGUAGUGAUGUUGUGAUGUUGCAGGAUAUAUAGUGAUGUAGAAGGGUAAGUACUUAUUUUUUUUUUGAGUUAUGUU
B5: Eterna 7616241 (Exclusion - Tryptophan A) (ssRNA)
RNA: AAUGUAUGCCACAUGAGGAUCACCCAUGUGCGAGGACCGGUACGGCCGCCACUCGGUCGGUGGUUAAUGAAGAUAUACAAUAAUG
B6: Eterna 7681146 (Same State - Arginine A) (ssRNA)
RNA: ACUGGGUUGACGAAAGUCAACAAAAGAGAAGGAGCGCACGAAAGUGCAGGUAGGUCGCUCAUCCAGUGAUGUUGGAUCAUCCAGA
B7: Eterna 1165 (Exclusion - Theophylline B) (ssRNA)
RNA: CCAAGCGUCAGCGAUACCAGAAUUCUAGUGAUGUUAGGUUCUGUCAUUGUACUAGCAGUGUUCCCUUGGCAGCGCGUGAUAGGCA
B8: Eterna 7675419 (Same State - Tryptophan A) (ssRNA)
RNA: UUUAAACAUAGUGAUGUUAUGUAACAAUGACGAGGACCGGUACGGCCGCCACUCGAGAGAGAUGAUGGUAAAAUAAAUAAUUUUC
B9: Eterna 1206 (Exclusion - Tryptophan A) (ssRNA)
RNA: CUAUAGACCCUUCGGAUAGUGAUGUUGUCACGAGGACCGGUACGGCCGCCACUCGCUGCCACCAUACCGCUUCACGGAACGAGCA
B10: Eterna 7759081 (Exclusion - Theophylline A) (ssRNA)
RNA: AACUGUCAAGGACAACAUUACUGAGGUGAUACCAGCAUCGAAAGAUGCCCUUGGCAGCGCCAACUUGCAGUGAUGUUGCAAGUAA
B11: Eterna 7671436 (Same State - Theophylline A) (ssRNA)
RNA: UGGACCUGACUCGAUAAGAGUCAAGGAGAUACCAGCCACGAAAGUGGCCCUUGGCAGCUCUGCCAGUGAUGUUGGUCAAGGUCCU

How the values were obtained:
[1] = system: Tetracycline aptamer, Light-up construct (RNA, aptamer) GGGAACGUCUCCGAGUAGGAGACGAAGGGAGAGUGGCAGCUUACAACGCUAAAACAUACCUGCACCACCGACCUUGAAAACAAGGGUAACGAAUGUGGAGCAGGAGAGGUGAAGAAUACGACCACCUAGCGAAGUGGGCUGUUGCUUUUCCAAGCUUAUCGAGUAGAUAAGCAAAAAGAAACAACAACAACAAC; experiment: DMS chemical mapping; details: 5 mM MgCl2, 1x PBS, pH 6.1, 24 °C
[2] = system: Tetracycline aptamer, RNA-MaP condition construct (RNA, aptamer) GGAAAGGCGCUAAAACAUACCAGUUCGCUGGAGAGGUGAAGAAUACGACCACCUAGCGCCAAAGAAACAACAACAACAAC; experiment: 1M7 chemical mapping; details: 80 mM KCl, 4 mM MgCl2; 100 mM Tris-HCl, pH 7.5, 37 °C
[3] = system: FMN aptamer, Light-up construct (RNA, aptamer) GGGAACGUCUCCGAGUAGGAGACGAAGGGAGAGUGGCAGCUUACAAUUCCAGCCGACCACUGAAAUACUCUAGAGGAUAUGACAGACAAAGUCUGUCAGAAGGCUAGAGCAGUGGGUAACGAAUGCUGGAAAAGUGGGCUGUUGCUUUUCCAAGCUUAUCGAGUAGAUAAGCAAAAAGAAACAACAACAACAAC; experiment: DMS chemical mapping; details: 5 mM MgCl2, 1x PBS, pH 6.1, 24 °C
[4] = system: FMN aptamer, RNA-MaP condition construct (RNA, aptamer) GGAAAGGCGUGUAGGAUAUGCUUCGGCAGAAGGACACGCCAAAGAAACAACAACAACAAC; experiment: 1M7 chemical mapping; details: 80 mM KCl, 4 mM MgCl2; 100 mM Tris-HCl, pH 7.5, 37 °C
[5] = system: BC_JL-sng2-3.09 (RNA, aptamer) GGGUAUGUCGCAGAAGUAGCUAUCGGAGGAUAUUCAUACCGGAAACGGACAUGAGGAUCACCCAUGUGGCGAAAGCCUUGGGAGAAGGCUGAUAGCUACAACUGCGACAUACCCAAAAAAAAAAAAAAAAAAAAAAAAA; experiment: flow cytometry of RNA beads with MS2 protein; DMS chemical mapping; details: RNA immobilised on beads; reversible over 80 FMN buffer exchanges
[6] = system: BH_E029 (RNA, aptamer) GGGAGAGUGGCAGCUUACAACGUAACGAUGCGGCCGCCACUGAUCCGACUGGUUAACAGAAAGUCCUGACCAGGUAACGAAUGGUCAGGACCGGGCAUUGUUACGAAGUGGGCUGUUGCUUUUCC; experiment: light-up fluorescence kinetics; details: 5 mM MgCl2, 1x PBS, pH 6.1, with tryptophan (ON state)
[7] = target: T1, MS2 coat protein, dlFG mutant (Escherichia phage MS2, UniProt P03612, del68-81insG); experiment: 4 mM Mg2+; no ligand; RNA-MaP array; 100 mM Tris-HCl pH 7.5, 80 mM KCl, 4 mM MgCl2, 0.1 mg/mL BSA, 1 mM DTT, 0.01 mg/mL yeast tRNA, 0.01% Tween-20; protein 1.5 nM to 3 uM; 37 C (Table S3); details: chain copies: 2; label: tethered by stalled RNA polymerase
[8] = target: T1, MS2 coat protein, dlFG mutant; experiment: 4 mM Mg2+; FMN 200 uM; RNA-MaP array; 100 mM Tris-HCl pH 7.5, 80 mM KCl, 4 mM MgCl2, 0.1 mg/mL BSA, 1 mM DTT, 0.01 mg/mL yeast tRNA, 0.01% Tween-20; protein 1.5 nM to 3 uM; 37 C (Table S3); details: chain copies: 2; label: tethered by stalled RNA polymerase
[9] = target: T1, MS2 coat protein, dlFG mutant; experiment: 4 mM Mg2+; L-tryptophan 2.4 mM; RNA-MaP array; 100 mM Tris-HCl pH 7.5, 80 mM KCl, 4 mM MgCl2, 0.1 mg/mL BSA, 1 mM DTT, 0.01 mg/mL yeast tRNA, 0.01% Tween-20; protein 1.5 nM to 3 uM; 37 C (Table S3); details: chain copies: 2; label: tethered by stalled RNA polymerase

Row | Molecule | Kd [7] | also measured
1 | CN(C)[C@@H]1C(=O)C(C(N)=O)=C(O)[C@@]2(O)C(=O)C3=C(O)c4c(O)cccc4[C@@](C)(O)[C@H]3C[C@@H]12 |  | Kd [1]: 57.50 ± 22.58/-15.88 nM; Kd [2]: 622.07 ± 132.12/-105.63 nM
2 | Cc1cc2nc3c(=O)[nH]c(=O)nc-3n(C[C@H](O)[C@H](O)[C@H](O)COP(=O)(O)O)c2cc1C |  | Kd [3]: 1.57 ± 0.58/-0.41 μM; Kd [4]: 1.71 ± 0.60/-0.44 μM; binding [5]: yes
3 | CN(C)c1ccc(C(=C2C=CC(=[N+](C)C)C=C2)c2ccccc2)cc1 |  | binding [6]: yes
4 | B1 | > 3000 nM | 
5 | B2 | 532 nM | 
6 | B3 |  | Kd [8]: 9.28 nM
7 | B4 | > 3000 nM | 
8 | B5 |  | Kd [9]: 15.5 nM
9 | B6 | > 3000 nM | 
10 | B7 | > 3000 nM | 
11 | B8 | > 3000 nM | 
12 | B9 | > 3000 nM | 
13 | B10 | > 3000 nM | 
14 | B11 | > 3000 nM | 
